Data on two proteins can be found in PMC11968938 (Scientific Reports, 2025).

Read-outs that look alike come from different tables or passages of the source.

Data set [1] deals with the molecule itself. Kind of data set: crystal structure.
Data set [2] deals with the molecule itself. Kind of data set: crystal structure. The source holds these as a separate data set.

B1: BBH37_(131-312) (domain or fragment, B. burgdorferi B31, UniProt O50692 131-312, looked up)
chain: FFPSTEEEKQADKAIKDIENLIGESGFPELIENVCSLKHEYTLIRSDFYDVITKIQNKKISLMKNSHNNRNKIRELVQLQNNLKIGDELDKIMGCIDTAEQEIRSAAFFFDEAKESLKEGIIKRLEKSKNRAASQLSKKALNRAEDALRCLENYSSKKGEAIGRRSFIKEVVEQAKNALSKS
modifications: Cys165 in a disulfide bond with Cys165 of the other protomer
What is called stoichiometry N is the number of molecules, sites or subunits per partner or assembly. For B1, the “stoichiometry N” value in the data set “crystal structure [1]” amounted to 2.

B2: BBH37_(119-312) (domain or fragment, B. burgdorferi B31, UniProt O50692 119-312, looked up)
chain: EHNQKKEIKEEDFFPSTEEEKQADKAIKDIENLIGESGFPELIENVCSLKHEYTLIRSDFYDVITKIQNKKISLMKNSHNNRNKIRELVQLQNNLKIGDELDKIMGCIDTAEQEIRSAAFFFDEAKESLKEGIIKRLEKSKNRAASQLSKKALNRAEDALRCLENYSSKKGEAIGRRSFIKEVVEQAKNALSKS
modifications: Cys165 in a disulfide bond with Cys165 of the other protomer
As for B2, the “stoichiometry N” value in the data set “crystal structure [2]” was 2.
